Laboratory results from publication PMC11953334, “Substrates bind to residues lining the ring of asymmetrically engaged bacterial proteasome activator Bpa” (Nature Communications, 2025).

Biological target: bacterial proteasome activator Bpa, full-length, wild-type (M. tuberculosis H37Rv) (UniProt P9WKX3)
Assay: MST

Substance: heat shock repressor HspR, wild-type (natural protein)
- Kd: 4.3 µM
